Source: the DeepSol protein solubility set

assay: soluble on expression in E. coli; label from the status in PepcDB or PDB records

**Q.** For “MSLKGNLDVIPQPQEIVLARDTTPFIIDRSTTIVYPATNEKMHRTADFLATFIKEMTGTEVHVSDKEKSSNAIILAVDSTMGHPEGYKLQITPEKVLLTGGSEAGVFYGIQTIHKALPILKDGKVAAALPAGTVTDFPRFRYRGFMIDVGRHFFPVSYLKQMIDLMALHNINYFHWHLTEDQGWRIEIKKYPKLTEIGSKRDSTIIDWETKKFDGKPHSGFYTQDEAREIVRYAADRFITVVPEIDLPGHTTAALASYPELGCTGGPYKVLCSFGVFPDVLCAGNDQTLQFTKDVLDEIMDIFPSEYIHIGGDECPKSRWEKCPKCQAKIKELGIKALPKHSKENQLQTYFMSELEKEINAHGRRMLGWDEVLEGGLTPNSTIMSWRGIQGGIEAARQHHDVIMTPIQRLYFSNPRINKMTGFEWMNRVYNFEPVPAELTDAEKKFVIGTQGCIWTEWTADSTKMEWQILPRMAALSEIQWTLPEHKNFERFMERLPEMLKIYSSLDYGYREDVFAADTLKTHKEGHHHHHH”, which “soluble on expression in E. coli” value is on record?
**A.** soluble

**Q.** Which “soluble on expression in E. coli” value does the source give for “QAMLIGEIMDLNLKNFLEDREEIIRDAKRKDEKSFKDFKKIVEEIKERENKDKIVCDFTEYNPLHKGHKYALEKGKEHGIFISVLPGPLERSGRGIPYFLNRYIRAEMAIRAGADIVVEGPPMGIMGSGQYMRCLIKMFYSLGAEIIPRGYIPEKTMEKVIDCINKGYHIQVKPYKIICIETGEILGEKLNIDNYVIASMSQMIYKLNREGLKFNPKFVFVKRLEGISGTKIREAIFSGKFEDIKNMLPKTTLSILKELYDNGKLNELILKRFEDRILETANEYDLYEYLPSNVAEILEKKRPFNNIEEIKNSLPYGFSRHFRERILSKLEARIPNETLSKYINNYPAKIKILAVKL” here?
**A.** soluble

**Q.** With “MNYELMEPAKQARFCVIWLHGLGADGHDFVDIVNYFDVSLDEIRFIFPHADIIPVTINMGMQMRAWYDIKSLDANSLNRVVDVEGINSSIAKVNKLIDSQVNQGIASENIILAGFSQGGIIATYTAITSQRKLGGIMALSTYLPAWDNFKGKITSINKGLPILVCHGTDDQVLPEVLGHDLSDKLKVSGFANEYKHYVGMQHSVCMEEIKDISNFIAKTFKI” as the sequence, how does the “soluble on expression in E. coli” value read?
**A.** not soluble

**Q.** For “MSRPPSRPRMMCARVLLLLSVTGLVLACETGPSSGDYEQAVMQDRVQRDMQMREKESVLPPGRREAFRGLNFYEVDPAYRYTVPLRRFETPDTVMIPESTGDLRPQQRIGEVTVPLPEGPEELVVFRGEGDTPRGRLWIPFADSTNRHATYKGGRYVDLTSTDSDSVVVDFNRAYNPTCAYNPDFACPLPPPENRIAVPVAAGEKRPTFGGLEHHHHHH”, which “soluble on expression in E. coli” value is on record?
**A.** not soluble

**Q.** With “MSDKPHRIVIVGGGAGGLELATALGNKYGKSDAVRVTLVDRSRTHIWKPLLHAIAAGSLRRSQHELNYLAQAHWHGFHYRLGEMNGLDRARKVIKLAPVIDDEGREINPESELAYDTLVIAIGSVTNDFGTPGARDHAVPLETPEQASRFNKRMVNACLRAQHQHAPIEPGQLHVAIIGAGATGTELAAELHHTAREIIAYGLDKIDPEHDLKIVLIEAAPRILPALPPRISDATLKLLLDLGVEVRTGARVAEVLDHAVRLADGEVIPSELVVWAAGVRAPDFLEGIDGLDTNRINQLVVRPTLQTTRDDNVFGMGDCAACAIPGYENGVPPRAQAAHQEAEFMLEQIEKRLKGEPLGEFRYRDLGSLVSLGKYSAVGNLMGSLVGKSFLIEGYFARFMYRSLYKMHEAALYGRGRTLLSVLSGSTRPTPTVKLHLEHHHHHH” as the sequence, how does the “soluble on expression in E. coli” value read?
**A.** not soluble

**Q.** For “MKLERVLPFARSLLQTAVKEGDYAVDATLGNGHDTCFLAEIVGDNGKVFGFDIQKEAIESSTTRLKEKELFERTVLVHDSHDTLLSILPEDAKGKVTGAIFNLGYLPGGDKHIVTKPNSTISAIEQLLEVMAPEGIIVLVIYHGHPEGQVERDAVLKFAEELDQKQAHVLRYGFINQQNNPPFIVAIEKR”, which “soluble on expression in E. coli” value is on record?
**A.** not soluble

**Q.** Which “soluble on expression in E. coli” value does the source give for “MLRGLRIIAENKIGVLRDLTTIIAEEGGNITFAQTFLIKHGEHEGKALIYFEIEGGDFEKILERVKTFDYIIEIEEEESFERVFGKRVIILGGGALVSQVAIGAISEADRHNLRGERISVDTMPVVGEEEIAEAVKAVSRLHRAEVLVLAGGIMGGKITEEVKKLRKSGIRVISLSMFGSVPDVADVVISDPVMAGTLAVMHISEKAKFDLDRVKGRRI” here?
**A.** soluble

**Q.** For “MEPTENLDVCLATLRDTDRDRYLACLLSPADKRNALAALYAFNAEIARIRDSVREALPGEVRMQWWRDLVDGNPHGDSQSHPVAAALLTTIEHYRLPRPVLGNMIEARIFDLYDDLFEDRNALEGYAGETASALIQLASLVLSAEDAAHSAEAAGHAGVAQAMAGMLLLMPLHRRRGQVYIPADMLAAAGLDRETFLAGQDRQRIGIAVEIFAAHALDHIEKARRATISKNLFAAYLPVALSGPVIAAARKAGAGVFDGDLQLSQLRRQWLLAKASFLKRF”, which “soluble on expression in E. coli” value is on record?
**A.** not soluble

**Q.** For “MVVKIKGKVFVFGDNVNTDEIIPARYLNTSDPQELAKYCMEDARPGFGRRDDIKGSIIVAGENFGCGSSREHAPVAIKAAGISCVIAKSFARIFFRNAINIGLPIVELKEADEFEEGDIAEVDLENGVVRNLTKGKEYRIRPYPEFLMKIMEAGGWLEYCLKEVGE”, which “soluble on expression in E. coli” value is on record?
**A.** soluble

**Q.** Which “soluble on expression in E. coli” value does the source give for “MKSYAILNQNNLFLSLEELKAIIDSDEVEYYHGVALFNKEPNNVAKRSSLIKYSGRVIAISHDVNEIVKNIKGECFSVDPTVITKEYKSEFLSIYDRIINNIKVSKKCKKMDLIFTEGLIIAGLRVEEKDNESLFKHSKKPYSQSGTLSPDIGRLMVNLSKSRKTILDPFVGTGTILIEAKWLGLNCIGLDVDSKMIEKSLVNLRYFGYECDILRGDATSLPFNNIEAIVTDPPYGRSVSVREGINNLYEGFFYSASNITRTLVFTTDSKLDWRDKLKEVGFNDISIHFIYEHKSLSRAIYVVRKK” here?
**A.** soluble

**Q.** For “MIPRRSCWLILLLNLLNVQSLLDASWWSTVAQLSTALAGHNVKPVCELPGLSPGQAQVCELFKDHMPAVSIGAQNAIQECQRQFTGHRWNCSTHYSTGMLGPIHKMATREAAFTYAILSAGVTHEIGRRCKQGLLTSCGCSDETKPKNVPTDWSWGGCGDNVEYGYKFSRDFIDIREKEHDPKRNHDNGRSLMNRRNNEAGRKILKRHRKPKCKCHGVSGACNMKTCWMQLPSMEQVGKILRNKYDKAIRVQINDRGNLQLLADEATKERKTRALPTDLVFMDDSPDYCRFDRHSGTLGTEGRVCKRGSGGAEGCDSLCCGRGYNTYTQEVKSKCNCKFEWCCKVVCQTCNNVTQVDICK”, which “soluble on expression in E. coli” value is on record?
**A.** not soluble

**Q.** For “MGSDKIHHHHHHMKDINMTVEKGQVAGILGITGCGKTTLLKLLYNGLKNGDRRLIWKGGNYVDAIGRARPNAVYVPQSAPDSLDPVYSVIDQIRKVMQARSVDFDQDLLEKIMSEIGRSPDMLKKKPQALSQGERHIAVVIMALMIRPSLIMMDEPTTSLDAIETLDLLGIIRRFSVQYGISFIISGTSPEVITYASDFVHVMYCGTFVESSQTEDLISNPLHPYTRMIMKMRPSIRTKDLVLDRFIYDCNDYGCPFLNYCEYARDECRSQVSIRRYNDRAGQVRSLAEIMLSAKHVYKTYLEKVSIFKWHENKVIEDFSYDFLSGTRYGIIGVSGSGKTTLASILAGYDRPDSGSIIYSKHPSDGSSIRVRNVFQDTYRFLNPVNTLEWYEKNISAISPDPKLIDKILDAVGLPLERFGSLYIDQLSGGQRQRLAFAMVLSQLPDVLILDEPFSMIDPPNAMVLFSLIRKYLDKSTVIYIDHNIDRVAYLCDHIIAFDKGRIVEEDDVKKIFETQKTEYVEKLIWASEKISSRMKRQP”, which “soluble on expression in E. coli” value is on record?
**A.** not soluble

**Q.** For “MDPLVSFFDGMAQASWLRPVHDRLKKGTGSWANRAVLDVGCGTGRLLARGVHEAAHLAGVDLSKQMVLATEERLHEHKQCGRLTVVQGDAYDLPFADESFDVCLSTCVMFLLPEPERGMKEMIRVLNGAGVIGMLNPTNKMNHAAAKAYCKKSGITGFEEKTLLQWSNVSTRRHRYTAEQLTHFFKQHGAWVVTHELVLDGLAVVTVASWNKLEHHHHHH”, which “soluble on expression in E. coli” value is on record?
**A.** not soluble

**Q.** With “MMSASSPYPIGTPGQPWQASERQAWREQRHIQREYQQEVVPKILALNSLFDVSTYGALSYDPTRYPLYVVKSRHWNANKPTVLITGGVHGYETSGVHGALQFLATAAEPYLAHFNLLAAPCVSPWGYETINRWNPNAIDPNRSFVQDSPAEEAALLMAMVAEHGPILLHIDLHETTDTDESEFRPALAARDGKAYLEGSIPDGFYTVGDTENPQLAFQQAVIDSVRRVTHIAPADENHEIIGSPVVAEGVILYPMRELGLCGGMTDCTYSTTTEVYPDSPKVTAQLCNDAQVAAIIGALDYVLANEQSLLGE” as the sequence, how does the “soluble on expression in E. coli” value read?
**A.** not soluble

**Q.** For “MGDTMQQRLTQDLTQFLASLPEDDRIKAINEIRMAIHQVSPFREEPVDCVLWVKNSQLMPNDYNPNNVAPPEKKLLQKSIEIDGFTQPIVVTHTDKNAMEIVDGFHRHEIGKGSSSLKLRLKGYLPVTCLEGTRNQRIAATIRHNRARGRHQITAMSEIVRELSQLGWDDNKIGKELGMDSDEVLRLKQINGLQELFADRQYSRAWTVK”, which “soluble on expression in E. coli” value is on record?
**A.** soluble

**Q.** With “MAKLFAYQIGQNPRIQTDLLVDPQLFEDEHGCMGAVGFGLADCVQTGMFTDIEVIKRYLHEATYVFINGDFDRLSYLEIGIALSLGKTLYVITMNPNVTKEDLGIPFDNATIEFLSPSAFTERIHETEAAEN” as the sequence, how does the “soluble on expression in E. coli” value read?
**A.** not soluble

**Q.** Which “soluble on expression in E. coli” value does the source give for “MSTATKVGAVIITMGNRPDELRALLDSVAKQDGDRVEVVVVGNGSPVPDVPAGVRTVELPENLGIPGGRNVGIEAFGPGGTDVDILLFLDDDGLLAHHDTAELCRQAFTADPELGIISFRIADPDTGETQRRHVPRLRASDPMRSSRVTTFLGGANAVRTKVLAEVGGLPDEFFYAHEETDLAWRALDAGWMIDYRSDMVLYHPTTAPSRHAVYHRMVARNRVWLARRNLPAPLVPVYLGVWLLLTLARRPSGPALKAWFGGFKEGWTSPCGPRRPMKWRTVWRLTRLGRPPVILEHHHHHH” here?
**A.** not soluble

**Q.** With “MDEEKIVLIGNESDLLHCGYNFALRAGGKRYPSAAHYTHYQILMSLNLPETAVEELLCTNSCDVHQKALVILQENMPDGHTINSLAAYLSESLRSYSIHALQLRAESDKDFEKTLMKTNEALLIVCDEKNPQLGIGMNDKTFMEWMAKEKADSRQISYWMKNEHTKPADLGQNKLGQYLMWLRFEIRERKKQGILTRPVVEVAGLSTDKDDEPIMISINDLVISLEGIFRPLSNYYAFPFEMKRERYRSVEHYAYEKLFNSLKLDEKAIEKIQTTPAPLNVPVVASKLLRKLEINPETIAEKTSKMDRWRQSAMKHKIYHNEYLQQLLLSTGSAILIDSSLGDPLWTCGATEVELQHLLTKSYVTPEKLVGWMLDGEETNTPKSVRHLYGNKSGLLLMELREKLSLQTTSRIPLVKLSKMNLNPLSGIVTPNVICFTPESVFHPLYPAEIRCSADGPPLPSPVHYVATQAAKFLSMNQEDTEYILEGPSSIQCWSRLHEVIESRGRGLELEQTWWMDKRMQFIKESLQLLLEQHPALLRALLDTGDSMLVYCSRFSSMDAELSMGMREMDFRYWLQEVDLTTKQLIELCTRPMAFRPPYIGGNRLGMILMELRREFVLQGVFPQQLPELQLTADSILGSNSPTENFMTSEYFDILQPWNYTALWINPLFLLAKDGNQEAMAQCTRIKTAPRMVTIDDEKVTDIVENLVNDETQEEALNSIAPEDLRAVFMKLCARLRGKIETLDRQSMELSMVAMETHRLQSIRRSLADTAERAETEGPSSSTGPSISAPPIPSRPGHSNYRMAAGRERDREEEREKDRERLQSQLSTSSSGPQGSASRKERMEYKIPTTSRRKFGKDRDRLPEKSSSDRGRDKHLDTPTKKRVNQSPPSRKAAPSPAKKPAISTSTPAVVVPPKPKRDPEEELSDGEILSTDEEDN” as the sequence, how does the “soluble on expression in E. coli” value read?
**A.** not soluble
